Data: patent publication US12098206B2, “PDGF receptor antibody and use thereof” (Seoul National University R&DB Foundation, priority 2018, dated 2024)

T1: mPDGFR-β (Mus musculus, UniProt P05622)
T1 construct: mPDGFR-β
T1 sequence (P05622 32-530): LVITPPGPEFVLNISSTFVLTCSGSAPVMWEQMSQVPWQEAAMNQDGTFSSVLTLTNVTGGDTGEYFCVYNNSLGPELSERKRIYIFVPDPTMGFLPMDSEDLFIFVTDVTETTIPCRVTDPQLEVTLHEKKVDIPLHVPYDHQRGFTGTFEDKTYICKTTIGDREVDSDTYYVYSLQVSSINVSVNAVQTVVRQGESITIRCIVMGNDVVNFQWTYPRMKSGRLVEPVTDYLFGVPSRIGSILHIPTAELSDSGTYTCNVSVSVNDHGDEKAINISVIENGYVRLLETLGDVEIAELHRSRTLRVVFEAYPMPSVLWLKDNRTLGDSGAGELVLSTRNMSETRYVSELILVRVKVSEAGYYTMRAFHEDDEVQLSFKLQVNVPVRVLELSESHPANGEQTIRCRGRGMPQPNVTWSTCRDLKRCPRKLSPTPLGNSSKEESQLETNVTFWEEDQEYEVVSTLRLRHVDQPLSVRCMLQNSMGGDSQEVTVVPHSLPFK


What was measured:
[1] = target: T2, NIH3T3 cells expressing mPDGFR-β (Mus musculus, UniProt P05622); test: Flow cytometry binding to NIH3T3 cells expressing mPDGFR-β; conditions: for binding to NIH3T3 cells: 100 nM, FIG. 18
T2 construct: host or cells: NIH3T3
Description: mPDGF-BB was biotinylated using a biotin-xx microscale protein labeling kit (Invitrogen) according to the manufacturer's instructions. NIH3T3 cells were cultured at 4° C. for 1 hour using the bispecific antibody of scFv-Cκ-scFv fusion protein (100 nM) under two different conditions with or without mPDGF-BB-biotin (100 nM). The cells were washed 4 times with flow cytometry buffer and cultured with allophycocyanin (APC)-anti-human Cκ antibody (clone TB28-2; BD Biosciences, San Jose, CA, USA) and streptavidin-phycoerythrin (PE) (12-4317-87; eBioscience, ThermoFisher). After washing, it was classified and analyzed with a FACS Canto II instrument (BD Biosciences, San Jose, CA, USA). 10,000 cells were used for each measurement, and the results were analyzed by FlowJo (Tree Star, Ashland, OR, USA). […] The binding ability of the other three clones was inhibited by mPDGF-BB.
Specifically, the bispecific antibody scFv-Cκ-scFv fusion protein (100 nM) in flow cytometry buffer was cultured on NIH3T3 cells expressing mPDGFR-β. The cells were treated with APC-anti human Cκ antibody. The bispecific antibody anti-HER2 x cotinine scFv-Cκ-scFv fusion protein was used as a negative control.

[2] = system: NIH3T3 cells; test: cells; format: cell-based, mouse
Description: NIH3T3 cells were added to 50 μL of DMEM supplemented with 10% FBS and 1% penicillin/streptomycin, placed in a 96-well plate (CLS3595, Corning) and incubated overnight in 5% CO2 at 37° C. incubator. In each well containing 50 μL of cells, 50 μL of 50 anti-PDGFR-β x cotinine scFv-Cκ-scFv fusion protein (25.6 pM-2 μM) complexed with cot-duo or cot-duo-cot obtained in Experimental Example 10 was added and incubated for 72 hours in 5% CO2 at 37° C. incubator. To test mPDGF-BB on the toxic effect of the bispecific antibody of scFv-Cκ-scFv and the cotinine-duocarmycin complex, mPDGF-BB (2 nM) was added together with 50 μL of the bispecific antibody scFv-Cκ-scFv and the cotinine-duocarmycin complex. The mixed complexes were added to 50 μL of NIH3T3 cells.
The bispecific antibody of anti-HER2 x cotinine scFv-Cκ-scFv was used as a control. After 72 hours of incubation in the cells, 100 μL of Cell Titer-Glo reagents (Promega Corp., Madison, WI, USA) were added to all wells according to the manufacturer's instructions, and luminescence was measured in a luminometer (PerkinElmer, Waltham, MA, USA). The experiment was repeated 3 times. Relative viability was calculated with the following formula: [% viability=(luminescence of experimental well-luminescence of background well)/(luminescence of control-luminescence of background well)×100]. The wells containing only new medium were used as background wells.
To evaluate the toxicity of the complex of anti-mPDGFR-B x cotinine scFv-Cκ-scFv bispecific antibodies and cotinine duocarmycin (cot-duo, cot-duo-cot), the complexes were added to NIH3T3 cells in the presence/absence of mPDGF-BB. The ATP of the cells was measured for relative cell viability. The toxicity of the bispecific antibody of scFv-Cκ-scFv fusion antibody was shown by IC50 in Table 6 and FIG. 5.
It was carried out in the same manner as in Example 7, except that the bispecific antibody related with the anti-mPDGFR-β antibody and the bispecific antibody related with the anti-hPDGFR-β antibody prepared in Example 10 were used. FIG. 20a to FIG. 20b are graphs showing the difference in cytotoxic activity of PRb-CN01 and PRb-CN32 bispecific antibodies and cotinine-duocarmycin complexes in the cells expressing PDGFR-β. In FIG. 20b, an experiment was repeated in the presence of mPDGF-BB.

[3] = target: T1, mPDGFR-β; test: Competition enzyme immunoassay against PRb-CN01-rabbit Fc on mPDGFR-β-hFc; format: binding; conditions: competitor bispecific scFv-Cκ-scFv 100 nM; FIG. 19a
Description: It was carried out in substantially the same manner as the enzyme immunoassay method for antibody binding ability of Example 3, except that mPDGFR-β-hFc chimeric protein was coated with O/N on a microtiter plate at a temperature of 4° C. After incubating the blocking agent in each well, various concentrations of PRb-CN01-rabbit Fc (0.01 nM-1 μM) and PRb-CN01, control anti-HER2 antibody, and PRb-CN32 bispecific scFv-Cκ-scFv (100 nM) diluted in 3% BSA/PBS were reacted in each well at 37° C. for 2 hours. After washing the plate three times with PBST, the HRP-anti rabbit Fc antibody was reacted at 37° C. for 1 hour, and after washing, the reaction was performed using ABTS. Then, the absorbance was measured at 405 nm with a Multiscan Ascent microplate device (Labsystems, Helsinki, Finland) (FIG. 19A). FIG. 19a is the result of confirming the competition for the PRb-CN01 surrogate antibody.

[4] = system: neovascularization; test: Oxygen-induced retinal disease animal model; format: in vivo, C57BL/6 mice; conditions: complex with cot-duo; 1 uL into the vitreous cavity, 1 nM and 10 nM; FIG. 9
Description: C57BL/6 mice on 7th day after birth were reared in a high-concentration oxygen (75%) chamber for 5 days, and transferred to a normal oxygen breeding facility on 12th day to create an environment for retinopathy of premature baby.
On the 14th day after birth, 1 uL of each bispecific antibody scFv-Cκ-scFv, and the complex of the bispecific antibody scFv-Cκ-scFv fusion protein and cot-duo were injected into the vitreous cavity at a concentration of 1 nM and 10 nM, respectively. To label blood vessels, isolectin B4-594 (1:100; 121413, Invitrogen) was treated on the retinal flat mount.

T2 sequence (P05622 32-1098): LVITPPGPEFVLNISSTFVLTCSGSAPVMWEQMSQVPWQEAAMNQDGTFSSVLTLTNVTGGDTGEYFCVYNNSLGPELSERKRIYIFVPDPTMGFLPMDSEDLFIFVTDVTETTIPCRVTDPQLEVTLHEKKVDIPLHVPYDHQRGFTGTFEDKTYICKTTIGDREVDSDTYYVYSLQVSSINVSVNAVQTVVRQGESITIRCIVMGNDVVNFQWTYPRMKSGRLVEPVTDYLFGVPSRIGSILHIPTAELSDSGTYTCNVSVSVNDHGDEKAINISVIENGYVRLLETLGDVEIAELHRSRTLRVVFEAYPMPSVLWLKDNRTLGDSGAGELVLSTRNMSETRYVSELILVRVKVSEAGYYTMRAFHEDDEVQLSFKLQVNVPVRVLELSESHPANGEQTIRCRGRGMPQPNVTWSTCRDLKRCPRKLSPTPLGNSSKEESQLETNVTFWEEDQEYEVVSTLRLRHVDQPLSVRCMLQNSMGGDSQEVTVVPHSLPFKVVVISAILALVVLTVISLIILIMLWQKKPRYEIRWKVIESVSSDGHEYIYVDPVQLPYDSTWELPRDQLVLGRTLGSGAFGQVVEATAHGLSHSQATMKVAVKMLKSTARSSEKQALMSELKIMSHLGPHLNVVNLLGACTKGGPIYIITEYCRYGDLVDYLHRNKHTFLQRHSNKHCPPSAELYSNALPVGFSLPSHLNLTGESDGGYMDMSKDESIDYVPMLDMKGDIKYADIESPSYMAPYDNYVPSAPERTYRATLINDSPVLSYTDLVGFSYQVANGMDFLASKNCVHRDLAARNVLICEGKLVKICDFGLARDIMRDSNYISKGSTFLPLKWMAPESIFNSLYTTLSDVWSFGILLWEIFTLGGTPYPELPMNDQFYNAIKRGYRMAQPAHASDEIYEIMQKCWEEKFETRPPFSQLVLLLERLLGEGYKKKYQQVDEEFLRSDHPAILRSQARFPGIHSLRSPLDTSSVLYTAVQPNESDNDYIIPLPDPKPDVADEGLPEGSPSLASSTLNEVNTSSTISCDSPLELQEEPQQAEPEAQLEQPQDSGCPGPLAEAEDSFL

| Molecule | binding to NIH3T3 cells [1] | cytotoxicity of complex with cotinine-duocarmycin, PRb-CN01 versus PRb-CN32 [2] | inhibition of binding of PRb-CN01-rabbit Fc to mPDGFR-β-hFc chimeric protein [3] | cell binding in the presence of mPDGF-BB-biotin ([1]; 100 nM antibody, mPDGF-BB-biotin 100 nM, FIG. 4b) | toxicity with the addition of mPDGF-BB ([2]; complex with cot-duo or cot-duo-cot, NIH3T3, FIG. 5) | toxicity compared to control anti-HER2 x cotinine scFv-Cκ-scFv ([2]; complex with cotinine-duocarmycin, NIH3T3, with or without mPDGF-BB, FIG. 5) | toxicity compared to free duocarmycin ([2]; cotinine-duocarmycin complexed with antibody, in the presence of mPDGF-BB, p<0.01) | inhibition of neovascularization [4] |
| --- | --- | --- | --- | --- | --- | --- | --- | --- |
| PRb-CN32: anti-hPDGFR-β scFv clone (VH SEQ ID NO 47, VL SEQ ID NO 48), tested as scFv-Cκ-anti-cotinine scFv bispecific antibody (antibody, V domains shown, VH of PRb-CN32; VL of PRb-CN32) VH: AVTLDESGGGLQTPRGTLSLVCKASGFTFSSFNMFWVRQAPGKGLEFVAGISTTGRYTGYGSAVQGRGTISRDNGQSTVRLQLNNLRAEDTGTYYCAKSAGSTYSYWDSDAGLIDAWGHGTEVIVSSTS VL: LTQPSSVSANLGETVKITCSGGSNAGSYYYGWYQQKSPGSAPVTVIYSNNQRPSDIPSRFSGSTSGSTSTLTITGVQVDDEAVYFCGSGDSSSIAAFGAGTTLTVL | bound to NIH3T3 cells | equivalent cytotoxicity regardless of the presence/absence of mPDGF-BB | inhibited | – | – | – | – | – |
| PRb-CN01: anti-mPDGFR-β chicken scFv clone (VH SEQ ID NO 7, VL SEQ ID NO 8), tested as scFv-Cκ-anti-cotinine scFv bispecific antibody (antibody, V domains shown, VH of PRb-CN01; VL of PRb-CN01) VH: AVTLDESGGGLQTPGGALSLVCKASGFTFSDRAMHWVRQAPGKGLEWVGLITNTGGSTNYGAAVKGRATISRDNGQSTVRLQLNNLRAEDTGTYYCTRGVGSWAHGGRIDAWGHGTEVIVSS VL: LTQPSSVSANPGETVKITCSGGSGSYGWFQQKSPGSAPVTVIYSNNQRPSDIPSRFSGSKSGSTNTLTITGVQAEDEAIYYCGTRDSSYVGIFGAGTTLTVL | bound to NIH3T3 cells | equivalent cytotoxicity regardless of the presence/absence of mPDGF-BB | inhibited | bound to PDGFR-β present on the cell surface | also high with the addition of mPDGF-BB | highest toxicity | significantly more toxic than free duocarmycin | inhibited neovascularization in a concentration-dependent manner |
